Results from the supplement of paper PMC9170038.

System: MS2 coat protein
Experiment: apparent KD of MS2 coat protein; higher = weaker reporter binding
Conditions: Eterna round: R107
Procedure, shortened: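 Designed RNA switches were made by on-chip transcription from Illumina sequencing clusters and then titrated with SNAP-549-labelled MS2 coat protein. Twofold steps ran from 0.7 or 1.5 nM to 3 µM, each lasting 0.8–1.5 h early and 10–20 min late, in 100 mM Tris-HCl pH 7.5, 80 mM KCl, 4 mM MgCl2, without or with constant ligand. Apparent KD is the per-design median of normalised cluster binding-curve fits.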

[1] = input ligand: theophylline 20 uM
[2] = input ligand: theophylline 2 mM
[3] = input ligand: tryptophan 2.4 mM

AUGCGGUGCGGAAGGAGCGAGUUUGCCUAUUUACAUGAGGAUCACCCAUGUCCUAAUGGGACUCAGGUAGGUCGCCGUUGUCGCA [Same State Arginine B GF 29]
apparent KD of MS2 coat protein (input ligand: arginine 13.2 mM): 47.7 nM | apparent KD of MS2 coat protein (input ligand: none): 45.5 nM | apparent KD of MS2 coat protein [1]: 65.5 nM | apparent KD of MS2 coat protein [2]: 49.9 nM | apparent KD of MS2 coat protein [3]: 52.1 nM

AUGCUUAUCAGAAGGAGCGUCAUUAACAUGAGGAUCACCCAUGUAACAUUGAAUUCGAUGAGACAGGUAGGUCGCUGAAUAGUAA [SS-ArgB27]
apparent KD of MS2 coat protein (input ligand: arginine 13.2 mM): 28 nM | apparent KD of MS2 coat protein (input ligand: none): 45.1 nM | apparent KD of MS2 coat protein [1]: 51.5 nM | apparent KD of MS2 coat protein [2]: 41.3 nM | apparent KD of MS2 coat protein [3]: 37.5 nM

AUGCUUGUCAGAAGGAGCGUCUUUAACAUGAGGAUCACCCAUGUAUCAUGGAAUUUGAUGAGACAGGUAGGUCGCUGAAUAGUAA [JR_SSArginiB_Sub021]
apparent KD of MS2 coat protein (input ligand: arginine 13.2 mM): 30 nM | apparent KD of MS2 coat protein (input ligand: none): 29.8 nM | apparent KD of MS2 coat protein [1]: 42.7 nM | apparent KD of MS2 coat protein [2]: 34.5 nM | apparent KD of MS2 coat protein [3]: 25.7 nM

AUGGACGACGAUCUGGGAAAACCAGAUCGACGAGGACCGGUACGGCCGCCACUCGUGUUUAUUUAACAUGAGGAUCACCCAUGUA [#13 Tryptophan A Same State]
apparent KD of MS2 coat protein (input ligand: arginine 13.2 mM): 34 nM | apparent KD of MS2 coat protein [1]: 55.7 nM | apparent KD of MS2 coat protein [2]: 65.5 nM

AUGUCAUUGGUGUAGCUGUGAAGUGGCGAUACCAGCGUGGAAACACGCCCUUGGCAGCGCCAAAACAUGAGGAUCACCCAUGUUA [#23 Exclusion-TheophyllineA]
apparent KD of MS2 coat protein (input ligand: arginine 13.2 mM): 19 nM | apparent KD of MS2 coat protein [1]: 56.3 nM | apparent KD of MS2 coat protein [3]: 22.9 nM

AUGUCCUAAACGGCCGCCACUUACAUGAGGAUCACCCAUGUUUACCGAUAUGGUUGUUGCUUUCCAAGGACCGGGUUUAAUCUGC [theeternabot_exclusion_MS2_Trp_B_49]
apparent KD of MS2 coat protein (input ligand: arginine 13.2 mM): 13.1 nM | apparent KD of MS2 coat protein [1]: 14.9 nM | apparent KD of MS2 coat protein [2]: 12.7 nM

AUGUCGUUGAAUAUAGCGGCUUGGAGUGAUACCAGAAUGAUCUAAUUCCCUUGGCAGCAUUACAUGAGGAUCACCCAUGUUCCAG [SSTheo A #22]
apparent KD of MS2 coat protein (input ligand: arginine 13.2 mM): 27.8 nM | apparent KD of MS2 coat protein [1]: 57.4 nM | apparent KD of MS2 coat protein [3]: 55.5 nM

AUUAACUGGUAAGAUACCAGAGUCGGGAUCUACAUGAGGAUCACCCAUGUUCUAAAGUCGCUCCCUUGGCAGCUUCAAUGAGUCG [theeternabot_sameState_MS2_Theo_B_27]
apparent KD of MS2 coat protein (input ligand: arginine 13.2 mM): 23.3 nM | apparent KD of MS2 coat protein [1]: 45.9 nM | apparent KD of MS2 coat protein [3]: 34 nM

AUUAAUUGUCGUGAUACCAGACUUACAUGAGGAUCACCCAUGUUACUUAAGAUUUUUGUUGUCCCUUGGCAGCACUUUUUAAUUA [JR_Nu_ExcTheophyB_Sub024]
apparent KD of MS2 coat protein (input ligand: arginine 13.2 mM): 24.5 nM | apparent KD of MS2 coat protein [1]: 33 nM | apparent KD of MS2 coat protein [3]: 23.3 nM

AUUCAGAGAUCACAUGAGGAUCACCCAUGUCGAGGACCGGUACGGCCGCCACUCGCGGCGGUGAAAAUAGAUACAAAGUAUCUAU [Ex_TrypA - Vienna approves #2]
apparent KD of MS2 coat protein (input ligand: arginine 13.2 mM): 25.5 nM | apparent KD of MS2 coat protein (input ligand: none): 50 nM | apparent KD of MS2 coat protein [1]: 61.8 nM | apparent KD of MS2 coat protein [2]: 45.9 nM | apparent KD of MS2 coat protein [3]: 284 nM

AUUGCGAGUGAGUCGUGUAACGAUUCAGAUACCAGGCAUUUCGUUGUCCCUUGGCAGCUGUCUUACAUGAGGAUCACCCAUGUUA [#29 Exclusion-TheophyllineA]
apparent KD of MS2 coat protein (input ligand: arginine 13.2 mM): 23.8 nM | apparent KD of MS2 coat protein [1]: 54.8 nM | apparent KD of MS2 coat protein [3]: 56.3 nM

CAAAAUAUAACGGCCGCCACUUACUCAUGAGGUAACAACAUGAGGAUCACCCAUGUUUGAGGAUCAAGGACCGGGUUAUAUUUUG [AstrosSSTry#21]
apparent KD of MS2 coat protein (input ligand: arginine 13.2 mM): 24.7 nM | apparent KD of MS2 coat protein [1]: 34.9 nM | apparent KD of MS2 coat protein [2]: 33 nM

CAAACAUGAGGAUCACCCAUGUAAUCAGAUACCAGUGACGAAAGUCACCCUUGGCAGCUGAUUACUUUAGUUCUAAGGUGUUUGA [EThA NP+V+V2 #5 +-Same Structure]
apparent KD of MS2 coat protein (input ligand: arginine 13.2 mM): 53.6 nM | apparent KD of MS2 coat protein [1]: 116 nM | apparent KD of MS2 coat protein [3]: 38.7 nM

CAAAUAGACCACGAUACCAGAACACAAGGAGUAAUAUCAAACAUGAGGAUCACCCAUGUCUUCCCUUGGCAGCGUAGCACGGAGU [theeternabot_exclusion_MS2_Theo_B_23]
apparent KD of MS2 coat protein (input ligand: arginine 13.2 mM): 13.5 nM | apparent KD of MS2 coat protein [1]: 15.2 nM | apparent KD of MS2 coat protein [3]: 11 nM

CAAUAUAUAACGGCCGCCACUUACUCAUGAGGUAACAACAUGAGGAUCACCCAUGUUUGAGGAUCAAGGACCGGGUUAUAUAUUG [AstrosSSTry#19]
apparent KD of MS2 coat protein (input ligand: arginine 13.2 mM): 29.3 nM | apparent KD of MS2 coat protein (input ligand: none): 28 nM | apparent KD of MS2 coat protein [1]: 33 nM | apparent KD of MS2 coat protein [2]: 27.1 nM | apparent KD of MS2 coat protein [3]: 18.4 nM

CAAUAUAUAUGAAGGAGCGACAUGAGGAUCACCCAUGUCUACCACGUCGAAAGACGCUCAUGUCAGGUAGGUCGCAUAUAUAUUG [Astros-Eli-mod4]
apparent KD of MS2 coat protein (input ligand: arginine 13.2 mM): 71.9 nM | apparent KD of MS2 coat protein (input ligand: none): 102 nM | apparent KD of MS2 coat protein [1]: 129 nM | apparent KD of MS2 coat protein [2]: 144 nM | apparent KD of MS2 coat protein [3]: 90.9 nM

CACAUGAGGAUCACCCAUGUCUGAACUGAAGGAGCGCUAAACAAGGCAGGUAGGUCGCGGAAUCCCGUGUGCAUAUGCACACGGG [9.Z]
apparent KD of MS2 coat protein (input ligand: arginine 13.2 mM): 24.1 nM | apparent KD of MS2 coat protein (input ligand: none): 15.6 nM | apparent KD of MS2 coat protein [1]: 24.1 nM | apparent KD of MS2 coat protein [2]: 20.4 nM | apparent KD of MS2 coat protein [3]: 18.9 nM

CACAUGAGGAUCACCCAUGUCUGAACUGAAGGAGCGCUAAACAAGGCAGGUAGGUCGCGGAAUUUUGUGUGCAUAUGCAUAUGGG [9.N]
apparent KD of MS2 coat protein (input ligand: arginine 13.2 mM): 21.6 nM | apparent KD of MS2 coat protein (input ligand: none): 24.5 nM | apparent KD of MS2 coat protein [1]: 36.3 nM | apparent KD of MS2 coat protein [2]: 26.9 nM | apparent KD of MS2 coat protein [3]: 24.8 nM

CACAUGAGGAUCACCCAUGUCUGAACUGAAGGAGCGCUAAAUAAGGCAGGUAGGUCGCGGAAUCUUGUGUGCAUAUGCACACGGG [9.T]
apparent KD of MS2 coat protein (input ligand: arginine 13.2 mM): 18.2 nM | apparent KD of MS2 coat protein (input ligand: none): 20.5 nM | apparent KD of MS2 coat protein [1]: 28.5 nM | apparent KD of MS2 coat protein [2]: 31.2 nM | apparent KD of MS2 coat protein [3]: 25 nM

CACGGCCAUGAGGAUCACCCAUGGAAUAAUCGAGGACCGGUACGGCCGCCACUCGUGGACCGUGACCUGUACGAAAAGUGCAGGA
apparent KD of MS2 coat protein (input ligand: arginine 13.2 mM): 20.8 nM | apparent KD of MS2 coat protein (input ligand: none): 26.5 nM | apparent KD of MS2 coat protein [1]: 31.7 nM | apparent KD of MS2 coat protein [2]: 26.9 nM | apparent KD of MS2 coat protein [3]: 10 nM

CAGAGCUACCGGGAUACCAGAAAUGGUAUUCCUUAAUUUCUUACAUGAGGAUCACCCAUGUUCCCUUGGCAGCUUGGUAGCUCUG [ETHB #8]
apparent KD of MS2 coat protein (input ligand: arginine 13.2 mM): 48.6 nM | apparent KD of MS2 coat protein [1]: 107 nM | apparent KD of MS2 coat protein [3]: 83.7 nM

CAGCACAUGAGGAUCACCCAUGUGAGGGAUACCAGCUCAGGCGUGGGCCCUUGGCAGCUCUCUGGCUGACGAAAGUCAGCCUGUG [#20 SameState-TheophyllineA]
apparent KD of MS2 coat protein (input ligand: arginine 13.2 mM): 14.4 nM | apparent KD of MS2 coat protein [1]: 24.2 nM | apparent KD of MS2 coat protein [3]: 13.6 nM

CAGGUCAGGGCGGCCGCCACUGUGGCUACGGUACAUGAGGAUCACCCAUGUUUGUGGUUGAUCUACAGGACCGGGCCCUAACACG [Beabe]
apparent KD of MS2 coat protein (input ligand: arginine 13.2 mM): 1080 nM | apparent KD of MS2 coat protein (input ligand: none): 430 nM | apparent KD of MS2 coat protein [1]: 214 nM | apparent KD of MS2 coat protein [2]: 757 nM | apparent KD of MS2 coat protein [3]: 126 nM

CAUACUUGAUCCUAUGAGCCUAUUUGUGAUACCAGCAUCUAAAUUUGCCCUUGGCAGCACUAACAUGAGGAUCACCCAUGUUAUA [JR_Nu_ExcTheophyA_Sub028]
apparent KD of MS2 coat protein (input ligand: arginine 13.2 mM): 23.7 nM | apparent KD of MS2 coat protein [1]: 42.5 nM | apparent KD of MS2 coat protein [3]: 37 nM

CAUAUAUAUAGAAGGAGCGACAUGAGGAUCACCCAUGUCUACCACGUCGAAAGACGCUCAUGUCAGGUAGGUCGCUAUAUAUAUG [Astros-Eli-mod2]
apparent KD of MS2 coat protein (input ligand: arginine 13.2 mM): 56.2 nM | apparent KD of MS2 coat protein (input ligand: none): 115 nM | apparent KD of MS2 coat protein [1]: 154 nM | apparent KD of MS2 coat protein [2]: 198 nM | apparent KD of MS2 coat protein [3]: 147 nM

CAUGACAUGAGGAUCACCCAUGUAUCCAGUCGAGGACCGGUACGGCCGCCACUCGGUGCCUUCAAAUUUACAGACAGGUGACAGG [theeternabot_sameState_MS2_Trp_A_30]
apparent KD of MS2 coat protein (input ligand: arginine 13.2 mM): 26.2 nM | apparent KD of MS2 coat protein [1]: 42.9 nM | apparent KD of MS2 coat protein [2]: 39.6 nM

CCAGCCCUUCUAGAUACCAGCUUUCAAUAUAAGACAACUCACAUGAGGAUCACCCAUGUUAGCCCUUGGCAGCUAAGAUCCACAA [theeternabot_exclusion_MS2_Theo_B_32]
apparent KD of MS2 coat protein (input ligand: arginine 13.2 mM): 46.6 nM | apparent KD of MS2 coat protein [1]: 67 nM | apparent KD of MS2 coat protein [3]: 48.5 nM
